Columns and labels:
[1] = target: T1, soluble human CD200R long isoform extracellular domain (ECD)-His polypeptide (human, UniProt Q8TD46 29-265); experiment: SPR (Biacore T200), antibody captured on Protein A, receptor ECD-His as analyte, 37 C, n = 3
T1 construct: Bought from R&D Systems, Cat. No. 10053-CD-050; also called Human CD200R long isoform ECD-His; human CD200R-ECD long isoform-His
T1 sequence: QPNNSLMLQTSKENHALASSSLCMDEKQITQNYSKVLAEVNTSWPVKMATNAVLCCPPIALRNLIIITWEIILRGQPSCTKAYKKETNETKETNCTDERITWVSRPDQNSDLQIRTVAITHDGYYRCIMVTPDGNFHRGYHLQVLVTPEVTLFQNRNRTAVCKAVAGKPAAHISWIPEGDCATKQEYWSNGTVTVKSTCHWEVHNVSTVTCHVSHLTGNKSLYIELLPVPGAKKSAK
Text: (§1) A BIACORE™ T200 (GE Healthcare, Piscataway, N.J.) is used to measure the binding kinetics and affinities of Antibody A to soluble human CD200R long isoform extracellular domain (ECD)-His polypeptide (SEQ ID NO: 17) (R&D Systems Cat. No. 10053-CD-050) and soluble cynomolgus monkey CD200R long isoform ECD-His polypeptide (SEQ ID NO: 19). Cynomolgus monkey CD200R ECD long isoform-His is expressed in HEK293 or CHO cells and purified using Ni SEPHAROSE™ excel column (GE Healthcare Life Sciences) and size exclusion chromatography.
(§2) A Series S CM4 chip (GE Healthcare Ca. No. BR-1005-34) is prepared using the manufacturer's EDC/NHS amine coupling method (GE Healthcare Cat. No. BR-1000-50). Briefly, the surfaces of all 4 flow cells are activated by injecting a 1:1 mixture of EDC/NHS for 7 minutes at 10 μL/minute. Protein A (Calbiochem Cat. No. 539202) is diluted to 100 μg/mL in 10 mM acetate pH 4.5 buffer and immobilized for approximately 400 RU onto all 4 flow cells by 7 minute injection at a flow rate of 10 μL/minute. Un-reacted sites are blocked with a 7 minute injection of ethanolamine at 10 μL/minute. Injections of 2×10 μL of glycine pH 1.5 are used to remove any non-covalently associated protein. Running buffer is 1× HBS-EP+ (10 mM HEPES, 150 mM NaCl, 0.05% Tween-20, pH 7.6, Teknova Cat. No. H8022).
(§3) Binding is evaluated using multi-cycle kinetics by an antibody capture method. Samples are diluted in 1× HBS-EP+ running buffer with 0.25% IgG free BSA (Jackson Immuno Research Cat. No. 001-000-161). Each cycle is performed at 37° C. at a flow rate of 20 μL/min for antibody capture to the Protein A chip and 30 μL/min for analyte association and dissociation.

[2] = target: T2, soluble cynomolgus monkey CD200R long isoform ECD-His polypeptide (cynomolgus monkey); experiment: as above
T2 construct: Expressed in HEK293 or CHO cells; also called cynoCD200R long isoform ECD-His; cynoCD200R-ECD long isoform-His
T2 chain: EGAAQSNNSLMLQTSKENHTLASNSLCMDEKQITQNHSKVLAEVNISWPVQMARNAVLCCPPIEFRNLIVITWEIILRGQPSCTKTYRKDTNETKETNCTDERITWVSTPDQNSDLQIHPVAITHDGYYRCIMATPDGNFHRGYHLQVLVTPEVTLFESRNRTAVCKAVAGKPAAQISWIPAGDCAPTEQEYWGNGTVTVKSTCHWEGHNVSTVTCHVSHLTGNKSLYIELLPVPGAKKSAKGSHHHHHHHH
Text: as §1, §2, §3

[3] = target: T3, Human CD200R long isoform (human, UniProt Q8TD46 25-348); experiment: flow cytometry on CHO cells expressing the receptor; midpoint of titration, one-site saturation fit
T3 construct: Stably expressed on CHO cells; also called human CD200R long isoform on CHO cells
T3 chain: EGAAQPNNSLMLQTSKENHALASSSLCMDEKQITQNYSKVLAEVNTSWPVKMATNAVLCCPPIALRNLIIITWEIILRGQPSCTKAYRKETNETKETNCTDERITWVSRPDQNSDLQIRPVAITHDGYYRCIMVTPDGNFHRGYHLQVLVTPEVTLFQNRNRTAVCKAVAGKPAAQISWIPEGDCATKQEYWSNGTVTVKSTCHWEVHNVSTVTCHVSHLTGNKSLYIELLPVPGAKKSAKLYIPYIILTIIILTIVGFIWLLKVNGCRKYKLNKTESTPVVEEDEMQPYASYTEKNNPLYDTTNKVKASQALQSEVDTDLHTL
Protocol: (§4) To perform flow cytometry, CD200R-expressing CHO cells are counted using a Vicell counter and pelleted by centrifugation at 1200 RPM, aspirated and resuspended in phosphate buffered saline (PBS). Cells are counted again and after another centrifugation are adjusted to 10⁶ cells/mL in flow cytometry wash buffer (PBS w/10% NGS & 2% FBS & 0.05% NaN₃) with Fc block (BD Biosciences). Cells are blocked on ice for 15 minutes. Next the tubes are centrifuged, aspirated, and washed once with cold wash buffer. After the wash, the cells are adjusted to 10⁶ cells/mL in wash buffer and plated at […] (50 μL) in a 96-well tissue culture plate (Corning 3799). Antibody A is titrated (1:3 dilutions) on the 96-well polystyrene plates (Corning 3879) starting at 30 μg/mL (final concentration) in cold wash buffer. Next, Antibody A is transferred at 50 μL/well into the Corning 3799 plate containing cells. The plates are incubated on ice for 45 minutes then washed twice with 150 μL cold wash buffer. Next, 100 μL secondary Goat anti-human IgG Fc-PE (Jackson Cat. No. 109-116-098 or Jackson Cat. No. 109-116-088) is added at a 1:500 or 1:400 dilution in wash buffer and incubated for 45 minutes on ice. Plates are washed twice and 200 μL propidium iodide (1:1000 dilution in wash buffer; Molecular Probes Cat. No. P3566) is added as the cell viability stain. The plates are covered with foil on ice. Flow cytometry is then performed using a Fortessa instrument acquiring with FACS Diva software (both from Becton Dickinson) and analyzing with FlowJo (version 10.5.3).
(§5) Antibody A is tested for its binding to recombinantly expressed isoforms of both human and cynomolgus monkey CD200R and the related activating cynomolgus monkey CD200RLa protein on Chinese Hamster Ovary (CHO) cell line surfaces using flow cytometry. The antibody is titrated onto CHO cells expressing the polypeptide of interest. The flow cytometry binding curves are fit using the one-site saturation binding model in GraphPad Prism.

[4] = target: T4, Cynomolgus monkey CD200R long isoform (cynomolgus monkey); experiment: as above
T4 construct: Stably expressed on CHO cells; also called cynomolgus monkey CD200R long isoform on CHO cells
T4 chain: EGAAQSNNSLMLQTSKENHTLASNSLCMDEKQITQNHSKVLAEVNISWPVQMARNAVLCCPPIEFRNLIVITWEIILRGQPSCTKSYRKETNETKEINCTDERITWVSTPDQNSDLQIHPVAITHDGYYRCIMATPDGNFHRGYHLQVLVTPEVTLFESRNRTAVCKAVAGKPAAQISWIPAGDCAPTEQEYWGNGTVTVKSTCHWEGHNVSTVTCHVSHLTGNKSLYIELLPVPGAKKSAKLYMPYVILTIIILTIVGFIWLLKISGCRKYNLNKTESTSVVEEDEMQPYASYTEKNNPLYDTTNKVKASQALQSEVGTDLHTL
Protocol: as §4, §5

[5] = target: T5, Human CD200R short isoform (human, UniProt Q8TD46 46-348); experiment: as above
T5 construct: Stably expressed on CHO cells; also called human CD200R short isoform on CHO cells
T5 sequence: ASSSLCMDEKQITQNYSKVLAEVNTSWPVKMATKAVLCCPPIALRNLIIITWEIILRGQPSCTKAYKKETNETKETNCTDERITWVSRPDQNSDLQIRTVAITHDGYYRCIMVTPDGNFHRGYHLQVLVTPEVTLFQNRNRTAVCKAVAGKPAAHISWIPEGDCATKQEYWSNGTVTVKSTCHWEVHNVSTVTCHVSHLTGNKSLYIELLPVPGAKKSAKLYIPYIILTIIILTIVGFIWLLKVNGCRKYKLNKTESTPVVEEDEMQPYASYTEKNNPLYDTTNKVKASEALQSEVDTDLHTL
Protocol: as §4, §5

[6] = target: T6, Cynomolgus monkey CD200RLa (cynomolgus monkey); experiment: as above
T6 construct: also called cynoCD200RLa
T6 chain: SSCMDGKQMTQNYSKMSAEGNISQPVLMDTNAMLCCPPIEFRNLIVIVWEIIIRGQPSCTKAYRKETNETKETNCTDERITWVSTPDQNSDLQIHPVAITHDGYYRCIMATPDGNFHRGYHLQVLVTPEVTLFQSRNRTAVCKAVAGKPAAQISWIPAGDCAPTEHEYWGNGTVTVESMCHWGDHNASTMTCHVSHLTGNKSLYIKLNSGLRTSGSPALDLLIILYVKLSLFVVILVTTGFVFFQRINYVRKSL
Protocol: as §4, §5

Kd [2]: 93.2 nM
Stoichiometry [2]: 2.6
koff [2]: 0.00056 s⁻¹
kon [2]: 6200 M⁻¹ s⁻¹
EC50 [4]: 2.3 µg/mL
EC50 [6]: 3.7 µg/mL
B1: Antibody A (antibody, human IgG4 S228P, kappa, F234A L235A, V domains shown)
VH: QVQLVESGGGVVQPGRSLRLSCAASGFTFSRYGMHWVRQAPGKGLEWVAVIPYDGSNKYYADSVKGRFTISRDISKNTLYLQMNSLRAEDTAVYYCARRGYYDSSGYYYFYYGMDVWGQGTTVTVSS
VL: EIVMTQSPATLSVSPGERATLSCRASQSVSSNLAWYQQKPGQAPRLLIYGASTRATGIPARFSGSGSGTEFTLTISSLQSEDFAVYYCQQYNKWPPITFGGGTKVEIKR
notes: The control used beside it is IgG4-PAA; also called Anti-human CD200R (Antibody A)
Kd [1]: 34.8 nM
Stoichiometry [1]: 1.9
koff [1]: 0.00016 s⁻¹
kon [1]: 4700 M⁻¹ s⁻¹
EC50 [3]: 3.2 µg/mL
EC50 [5]: 1.1 µg/mL

— patent US20220396619A1 (Eli Lilly, published 2022)
